B1: recombinant IRAK4 (protein)
chain: MNKPITPSTYVRCLNVGLIRKLSDFIDPQEGWKKLAVAIKKPSGDDRYNQFHIRRFEALLQTGKSPTSELLFDWGTTNCTVGDLVDLLIQNEFFAPASLLLPDAVPKTANTLPSKEAITVQQKQMPFCDKDRTLMTPVQNLEQSYMPPDSSSPENKSLEVSDTRFHSFSFYELKNVTNNFDERPISVGGNKMGEGGFGVVYKGYVNNTTVAVKKLAAMVDITTEELKQQFDQEIKVMAKCQHENLVELLGFSSDGDDLCLVYVYMPNGSLLDRLSCLDGTPPLSWHMRCKIAQGAANGINFLHENHHIHRDIKSANILLDEAFTAKISDFGLARASEKFAQTVMTSRIVGTTAYMAPEALRGEITPKSDIYSFGVVLLEIITGLPAVDEHREPQLLLDIKEEIEDEEKTIEDYIDKKMNDADSTSVEAMYSVASQCLHEKKNKRPDIKKVQQLLQEMTAS
- in vitro kinase assay on anti-myc immunoprecipitates, autoradiography (myc-IRAK1c): Neither IPAK1c nor IPAK1c-KD showed any phosphorylation in the presence of IRAK4
- in vitro kinase assay on anti-myc immunoprecipitates, autoradiography (myc-IRAK1c-KD): Neither IPAK1c nor IPAK1c-KD showed any phosphorylation in the presence of IRAK4

Chain of myc-IRAK1c (chain, as listed by the source): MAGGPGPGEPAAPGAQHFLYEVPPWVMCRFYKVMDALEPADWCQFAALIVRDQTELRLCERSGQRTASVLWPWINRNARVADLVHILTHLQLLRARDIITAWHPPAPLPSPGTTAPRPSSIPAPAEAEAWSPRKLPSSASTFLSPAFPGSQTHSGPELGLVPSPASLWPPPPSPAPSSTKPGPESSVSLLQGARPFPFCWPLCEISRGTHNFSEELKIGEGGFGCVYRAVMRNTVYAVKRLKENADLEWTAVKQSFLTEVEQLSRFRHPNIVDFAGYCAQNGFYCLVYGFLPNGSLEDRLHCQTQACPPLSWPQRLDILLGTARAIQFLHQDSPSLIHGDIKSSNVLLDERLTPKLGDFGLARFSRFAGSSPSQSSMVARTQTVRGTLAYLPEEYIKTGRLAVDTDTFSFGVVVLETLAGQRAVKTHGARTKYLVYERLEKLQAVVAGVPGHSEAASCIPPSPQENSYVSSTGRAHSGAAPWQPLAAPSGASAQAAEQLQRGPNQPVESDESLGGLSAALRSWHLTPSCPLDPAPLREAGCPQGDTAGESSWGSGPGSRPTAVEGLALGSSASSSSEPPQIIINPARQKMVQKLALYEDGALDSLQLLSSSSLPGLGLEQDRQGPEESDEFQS
Chain of myc-IRAK1c-KD (chain, as listed by the source): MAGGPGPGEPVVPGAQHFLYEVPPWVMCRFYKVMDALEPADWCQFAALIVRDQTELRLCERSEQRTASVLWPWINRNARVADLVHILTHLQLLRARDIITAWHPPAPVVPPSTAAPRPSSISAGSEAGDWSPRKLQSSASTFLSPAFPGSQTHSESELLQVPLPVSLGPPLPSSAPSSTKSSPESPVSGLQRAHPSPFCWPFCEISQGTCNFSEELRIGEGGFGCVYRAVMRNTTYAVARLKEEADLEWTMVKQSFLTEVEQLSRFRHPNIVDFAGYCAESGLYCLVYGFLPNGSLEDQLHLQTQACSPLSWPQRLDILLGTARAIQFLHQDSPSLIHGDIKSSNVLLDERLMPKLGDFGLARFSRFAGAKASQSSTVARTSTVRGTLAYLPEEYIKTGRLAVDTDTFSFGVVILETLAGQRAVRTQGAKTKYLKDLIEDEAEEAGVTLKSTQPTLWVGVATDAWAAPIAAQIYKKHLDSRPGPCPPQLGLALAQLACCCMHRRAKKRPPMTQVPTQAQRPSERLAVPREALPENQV
